The chains are these.
B1: ADI-46724 (antibody, V domains shown)
VH: QVQLQESGPGLVEPSGTLSLTCVVTGDSISSRSWWSWVRQPPGKGLEWIGEIYHSGTTTYSPSLKSRVIISLDKSENHFSLKMTSVTAADTAVYYCARVIRDLRDYYDGSGYGPDAFDIWGQGTTVTVSS
VL: QPVLTQPPSVSAAPGQKVTISCSGSSSNIGSNFVSWYQQFPGTAPKLLIYDDNKRPSGIPDRFSGSKSGTSATLGITGLQTGDEADYYCETWDSRLSVVFGGGTKLTVL
notes: full-length IgG; also called Antibody Number 133
B2: ADI-49137 (antibody, V domains shown)
VH: EVQLVESGGGLVQPGGSLRLSCAASGFIFSDHYMAWVRQAPGKGLEWVGHVGNKANTYTTEYAASVKGRFTISRDDSKKSLYLQMNRLKSEDTAVYYCARVFSYYLDYWGQGTPVTVSS
VL: EIVLTQSPGTLALSPGERATLSCRASQSVSSYLAWYQQKPGQAPRLLIYDSSNRATGIPARFSGSGSGTDFTLTISSLEPEDFAVYYCQQPGNWPPAFTFGGGTKLEIK
notes: full-length IgG; also called Antibody Number 126
B3: ADI-42226 (antibody, V domains shown)
VH: EVQLLESGGGLVQPGGSLRLSCAASGFIFSDHYMDWVRQAPGKGLEWVGRIRNKPNSYTTDYAAYVKGRFSISRDDSKNSLFLQMNSLKTEDTAVYYCARVVNGLDVWGQGTTVTVSS
VL: SYELTQPPSVSVSPGQTARITCSGDALPKQYAYWYQQKPGQAPVLVIYKDTERPSGIPERFSGSSSGTTVTLTISGVQAEDEADYYCQSADSSVADSSVVFGGGTKLTVL
notes: full-length IgG
B4: ADI-49032 (antibody, V domains shown)
VH: EVQLVQSGGGLVQPGGSLRLSCVGSGLTLSSSAMSWVRQAPGKGLECVSGITGSGSDSSYAASVKGRFTISRDNSKNTVYLQMNSLRAEDTAVYYCAKDLTHRLGSIFGKLTFDAFDIWGPGTMVTVSS
VL: DIRLTQSPSTLSASVGDRVTITCRASQSISGWLAWYQQKPGKAPKLLIYKASILESGVPSRFSGSQSGTEFTLTISSLQPDDFATYYCQQYNNFWTFGQGTKLEIK
notes: full-length IgG; also called Antibody Number 119
B5: ADI-48890 (antibody, V domains shown)
VH: EVQLVESGGGLVQPGGSLRLSCAASGFTFSDHYMDWVRQAPGKGLEWVGRARNRANSYTTEYAASVKGRFAASRDDSKNSLYLQMNSLKTEDTAVYYCARVRGSYWDYWGQGTLVTVSS
VL: QSALTQPPSASGSPGQSVTISCTGTSSDVGGYNYVSWYQQHPGKAPKLMIYEVSKRPSGVPDRFSGSKSGNTASLTVSGLQAEDEADYYCSSFAGSNNLYVFGTGTKVTVL
notes: full-length IgG
B6: ADI-42817 (antibody, V domains shown)
VH: QVTLKESGPTLVKPTQTLTLTCTFSGFSLSTSGVGVGWTRQPPGKALEWLALIYWDDDKRYSPSLKSRLTITKDTSKNQVVLTMTKMDPVDTATYYCAHRHIAARLYRDDDVFDVWGQGTMVTVSS
VL: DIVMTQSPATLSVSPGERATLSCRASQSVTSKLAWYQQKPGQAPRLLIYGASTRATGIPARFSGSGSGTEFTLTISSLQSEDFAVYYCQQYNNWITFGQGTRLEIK
notes: full-length IgG
B7: ADI-48894 (antibody, V domains shown)
VH: EVQLVESGGGLVQPGGSLRLSCAVSGFTFSDHYMDWVRQAPGKGLEWVGRSRNKVNSYITEYAASVKGRFSISRDDSKNSLYLQMNSLKIEDTAVYYCARVFGGPTDYWGQGTLVTVSS
VL: EIVLTQSPSSLSASVGDRVTITCRASQGISNYLAWYQQKPGKAPKLLIYAASTLQSGVPSRFSGSGSGTDFILTISSLQPEDVATYYCQKYYSAPLITFGPGTKVEIK
notes: full-length IgG
B8: ADI-50197 (antibody, V domains shown)
VH: EVQLVESGGGVVQPGRSLRLSCAASGFTFSSYGMHWVRQAPGKGPEWVAVISEDGNKDHYVDSVKGRFSIYRDNSKSTVFLRMTSLRAEDTAVYYCAKDLTPYFYDSGAFDHWGQGTLVTVSS
VL: QSVLTQPPSVSGAPGQRVTISCTGNSSNIGAGYEVHWYQQLPGTAPKLLIYGNNNRPSGVPDRFSGSKSGASGSLAVTGLRAEDEADYYCHSYDSNMSGSVFGGGTKVTVL
notes: full-length IgG; also called Antibody Number 120
B9: ADI-48969 (antibody, V domains shown)
VH: QVTLKESGGALVKPAGSLTLSCAASGFTFGDYYMSWIRQAPGKGLEWISYISSSGSSIYYTDSVRGRFTISRDNARNSLYLQMNSLRVEDTAVYYCAREFSSRPFDLWGQGTLVTVSS
VL: QSVLTQPRSVSGSPGQSVTISCTGTSSDVGAYNFVSWYQQYPGKAPKLMIYDVNKRPSGVPDRFSGSKSGNTASLTISGLQAEDEADYHCCSYAGTYTSNYVFGSGTKVTVL
notes: full-length IgG; also called Antibody Number 12
B10: ADI-50218 (antibody, V domains shown)
VH: QVQLVQSGAEVKKPGASVKVSCKASGYTFTSYDINWVRQATGQGLEWMGWMNPNSGNTGYAQKFQGRVTMTRNTSISTAYMELSSLRSEDTAVYYCARGLNTVTNSDYWGQGTLVTVSS
VL: DIQLTQSPSSVSASVGDRVTITCRASQGISSWLAWYQQKPGKAPKLLIYAASSLQSGVPSRFSGSGSGTDFTLTISSLQPEDFATYYCQQANSFPWTFGQGTKVDIK
notes: full-length IgG; also called Antibody Number 128
B11: ADI-42810 (antibody, V domains shown)
VH: QVQLVESGAEEKKPGASVKVSCKASGYTFTSYAMHWVRQAPGQRLEWMGWINAGNGNTKYSQKFQGRVTITRDTSASTAYMELSSLRSEDTAVYYCARQWLGHFDYWGQGTLVTVSS
VL: QSALTQPASVSGSPGQSITISCTGTSSDVGGYNYVSWYQQHPGKAPKLMIYEVSNRPSGVSNRFSGSKSGNTASLTISGLQAEDEADYYCSSYTSSSTYVFGTGTKVTVL
notes: full-length IgG
B12: ADI-42206 (antibody, V domains shown)
VH: QVQLVQSGGGLVQPGGSLRLSCAASGFTFSDHYMDWVRQAPGKGLEWVGRIRNKVNSYTTEYAASVKGRFTISRDDSKNSLYLQMNSLKTEDTAVYYCGRDRGWLDIWGQGTMVTVSS
VL: QSVLTQPASVSGSPGQSITISCTGTSSDVGGYNYVSWYQQHPGKAPKLMIYDVTNRPSGVSNRFSGSRSGNTASLTISGLQAEDEADYYCSSYTRSSTRVFGGGTKLTVL
notes: full-length IgG; also called Antibody Number 132
B13: ADI-48900 (antibody, V domains shown)
VH: EVQLQESGPGLVKPSGTLSLTCAVSGGSISSSDWWSWVRQPPGKGLEWIGEIYHSGSTSYNPSVKSRVSISVDKSKNQFSLQLSSVTAADTAIYYCARVNPPQYSSGWYSVYWGQGTLVTVSS
VL: QSVVTQPPSVSAAPGQKVTISCSGSSSNIGNNYVSWYQQLSETAPKLLIYDNNKRPSGIPNRFSGSKSGTSATLGITGLQTGDEADYYCGTWDNSLGAVVFGGGTKVTVL
notes: full-length IgG; also called Antibody Number 13
B14: ADI-46739 (antibody, V domains shown)
VH: EVQLVESGPGLVKPSGTLSLTCAVSGGSISSDNWWSWVRQAPGKGLEWIGEIYHTGSTSYNPSLKSRVTISLDKSKNHFSLKLNSLTAADTAVYYCAGKKWELLGFRFDPWGQGTLVTVSS
VL: NFMLTQPPSVSAAPGQKVTISCSGSNSNIGNNFVSWYQQLPGTAPKLLIYDNNERPSGIPDRFSGSKSVTSATLGITGLQTGDEADYYCGTWDNSLGMVVFGGGTKLTVL
notes: full-length IgG; also called Antibody Number 124
B15: ADI-49037 (antibody, V domains shown)
VH: EVQLVESGGGVVQPGRSLRLSCAASGFTLSSYVMHWVRQAPGKGLEWVAVISSDGTNKYYADSVKGRFTISRDSSKNTLYLQMNSLRPEDSAVYYCARGQPDYWGQGTLVTVSS
VL: EIVLTQSPATLSLSPGERATLSCRASQSVSNYFAWYQQKPGQAPRLLIYGASNRATGVPARFSGSGSGTDFTLTISSLEPEDFAVYYCQQRSNWPYTFGQGTKVEIK
notes: full-length IgG
B16: ADI-42186 (antibody, V domains shown)
VH: QVQLQQSGPGLVKPSQTLSLTCAISGDSVSTNSAAWNWIRQSPSRGLEWLGRTYYRSKWYNDYALSVKSRITIKPDTSKNQFSLQLNSVTPEDTAVYYCAREGAGYYDSSGYYPLSYDAFDIWGRGTMVTVSS
VL: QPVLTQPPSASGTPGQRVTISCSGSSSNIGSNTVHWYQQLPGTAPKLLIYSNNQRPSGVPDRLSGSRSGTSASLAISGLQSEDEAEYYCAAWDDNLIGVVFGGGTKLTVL
notes: full-length IgG; also called Antibody Number 130

T1 sequence (Q6DV88 286-678): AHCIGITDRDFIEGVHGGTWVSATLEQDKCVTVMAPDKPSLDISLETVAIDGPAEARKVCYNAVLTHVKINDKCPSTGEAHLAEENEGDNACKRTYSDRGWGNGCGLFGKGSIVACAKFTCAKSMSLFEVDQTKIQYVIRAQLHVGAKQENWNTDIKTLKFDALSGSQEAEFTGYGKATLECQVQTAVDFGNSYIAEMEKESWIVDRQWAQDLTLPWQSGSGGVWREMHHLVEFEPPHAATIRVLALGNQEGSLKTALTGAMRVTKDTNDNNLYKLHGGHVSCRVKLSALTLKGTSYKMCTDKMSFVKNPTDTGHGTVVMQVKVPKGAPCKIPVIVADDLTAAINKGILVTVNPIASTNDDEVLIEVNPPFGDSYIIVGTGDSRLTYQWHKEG

This assay concerns the target T1, recombinant YFV E protein (soluble E, sE; YFV Asibi strain) (Yellow fever virus, Asibi strain, UniProt Q6DV88 286-678).
T1 construct: also called YFV E antigen; YFV E monomer
Description: BLI monovalent (IgG on tip).
Regarding B1, the Kd was greater than 100 nM.
For B2 the value was 0.854 nM.
For B3 the value was 0.843 nM; for B4, 0.486 nM.
For B5 the value was greater than 100 nM.
As to B6, the Kd amounted to 4.15 nM.
Next, B7: 95.6 nM; B8: greater than 100 nM; B9: 5.86 nM.
For B10, the Kd was greater than 100 nM.
For B11, the Kd was greater than 100 nM.
Take B12: the Kd was found to be 1.73 nM.
Next, B13: 26.2 nM; B14: greater than 100 nM.
On to B15, for which the dissociation constant (Kd) is 3.53 nM.
For B16 the value was 1.21 nM.

One may read the Kd as the equilibrium constant for the complex coming apart.

For the origin of these results see patent publication US20240218054A1 (MABLOC, published 2024).
